± gives the uncertainty stated by the source.
Test: self-splicing fitness, log relative to wild type (ln ratio); higher = more splicing; Tetrahymena group I intron in knt gene, E. coli kanamycin selection, DiMSum; sequences stand for … in CUCUCU…GGAGGGAAAAGUUAUCAGGCAUGCACCUGGUAGCUAGUCUUUAAACCAAUAGAUUGCAUCGGUUUAAAAGGCAAGACCGUCAAAUUGCGGGAAAGGGGUCAACAGCCGUUCAGUACCAAGUCUCAGGGGAAACUUUGAGAUGGCCUUGCAAAGGGUAUGGUAAUAAGCUGACGGACAUGGUCCUAACCACGCAGCCAAGUCCUAAGUCAACAGAUCUUCUGUUGAUAUGGAUGCAGUUCACAGACUAAAUGUCGGUCGGGGAAGAUGUAUUCUUCUCAUAAGAUAUAGUCGGACCUCUCCUUAAUGGGAGCUAGCGGAUGAAGUGAUGCAACACUGGAGCCGCUGGGAACUAAUUUGUAUGCGAAAGUAUAUUGAUUAGUUUUGGAGUACUCGUGGUCG
Procedure, shortened: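 Pooled colonies went to amplicon sequencing on an Illumina HiSeq 2500 after six replicate transformations. The plates were LB agar with 100 μg/mL carbenicillin, 50 μM IPTG and 0.2% rhamnose, with or without 25 μg/mL kanamycin, incubated overnight at 37°C or 30°C. The E. coli BL21(DE3) library had all eight P1ex-region intron nucleotides randomised, the intron placed in the knt kanamycin-resistance gene on pET-22b(+). DiMSum fitness is the error-weighted combination of replicate fold changes, kanamycin against none, normalised to wild type.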

| Sequence | self-splicing fitness (ln) (30 °C) | self-splicing fitness (ln) (37 °C) |
| --- | --- | --- |
| GCGAAGCAAUAUUACGUCGA | -2.01 ± 0.1 | -0.792 ± 0.094 |
| AUAAAGCAAUAUUACGCACC | -0.896 ± 0.33 | -1.02 ± 0.29 |
| ACAUAGCAAUAUUACGUAUU | -4.38 ± 0.21 | -2.78 ± 0.23 |
| UGAAAGCAAUAUUACGUGUU | -3.21 ± 0.13 | -1.44 ± 0.11 |
| ACGCAGCAAUAUUACGUAUA | -2.65 ± 0.14 | -2.54 ± 0.13 |
| CGGAAGCAAUAUUACGUCCA | -0.281 ± 0.097 | 0.585 ± 0.13 |
| AUCCAGCAAUAUUACGGAUC | -3.35 ± 0.18 | -3.11 ± 0.2 |
| AUCUAGCAAUAUUACGUACU | -0.329 ± 0.082 | -0.199 ± 0.11 |
| CCGCAGCAAUAUUACGAGUU | -4.11 ± 0.22 | -2.56 ± 0.21 |
| UCCAAGCAAUAUUACGAUUG | -4.13 ± 0.33 | -1.78 ± 0.2 |
| GACAAGCAAUAUUACGCAUU | -2.91 ± 0.089 | -1.96 ± 0.11 |
| GUUAAGCAAUAUUACGCUCG | -0.539 ± 0.13 | 0.0474 ± 0.16 |
| CGUUAGCAAUAUUACGCUCG | -1.41 ± 0.14 | -1.38 ± 0.18 |
| UGACAGCAAUAUUACGAACA | -0.232 ± 0.081 | -0.06 ± 0.087 |
| UCGAAGCAAUAUUACGGACU | -1.07 ± 0.11 | 0.0804 ± 0.13 |
| GACGAGCAAUAUUACGGUCG | -2.31 ± 0.097 | -0.868 ± 0.12 |
| AGUAAGCAAUAUUACGUUAA | -2.91 ± 0.21 | -1.63 ± 0.18 |
| GCCUAGCAAUAUUACGGAGG | -2.47 ± 0.29 | -2.65 ± 0.28 |
| ACUCAGCAAUAUUACGAAGA | -0.868 ± 0.1 | -0.958 ± 0.11 |
| CGUGAGCAAUAUUACGCUGC | -2.64 ± 0.32 | – |
| GGCGAGCAAUAUUACGACAU | -0.665 ± 0.015 | -0.155 ± 0.034 |
| UGAGAGCAAUAUUACGGAUC | -1.94 ± 0.25 | -2.32 ± 0.49 |
| UUUGAGCAAUAUUACGCGUU | -2.4 ± 0.18 | -2.86 ± 0.42 |
| GGGCAGCAAUAUUACGCCAC | -3.34 ± 0.37 | -1.22 ± 0.38 |

| Sequence | self-splicing fitness (ln) (30 °C) | self-splicing fitness (ln) (37 °C) |
| --- | --- | --- |
| CACAAGCAAUAUUACGCGUA | -1.64 ± 0.072 | -0.625 ± 0.067 |
| UCUGAGCAAUAUUACGAAUC | -3.29 ± 0.25 | -3.03 ± 0.43 |
| CAAUAGCAAUAUUACGGUGU | -3.14 ± 0.16 | -2.27 ± 0.18 |
| UACGAGCAAUAUUACGACAG | -2.49 ± 0.21 | -0.615 ± 0.2 |
| CAUUAGCAAUAUUACGGUUA | -2.35 ± 0.28 | -0.486 ± 0.17 |
| CGCUAGCAAUAUUACGCGCC | -2.52 ± 0.19 | -2.24 ± 0.35 |
| GGGUAGCAAUAUUACGCUCA | -0.291 ± 0.17 | -0.622 ± 0.26 |
| UAUGAGCAAUAUUACGUGUC | -3.77 ± 0.28 | -3.2 ± 0.4 |
| AUCUAGCAAUAUUACGAUCC | -1.97 ± 0.18 | -0.573 ± 0.26 |
| CAGGAGCAAUAUUACGAUGU | -4 ± 0.21 | -2.91 ± 0.17 |
| CGCUAGCAAUAUUACGGCUG | -1.13 ± 0.12 | -0.227 ± 0.14 |
| AGCCAGCAAUAUUACGCAUC | -3.75 ± 0.2 | -3.03 ± 0.17 |
| UUUUAGCAAUAUUACGCAGA | -0.713 ± 0.21 | -0.506 ± 0.16 |
| CACUAGCAAUAUUACGUUCU | -3.24 ± 0.17 | -1.39 ± 0.14 |
| UUGCAGCAAUAUUACGCUUG | -3.08 ± 0.27 | -1.97 ± 0.29 |
| CGAGAGCAAUAUUACGAGGU | -3.16 ± 0.21 | -2.02 ± 0.22 |
| CGUUAGCAAUAUUACGAAAC | – | -1.84 ± 0.37 |
| CUUGAGCAAUAUUACGCGGA | -2.71 ± 0.33 | -3.47 ± 0.31 |
| GCGUAGCAAUAUUACGUACA | -1.1 ± 0.16 | -1.23 ± 0.14 |
| GUAGAGCAAUAUUACGGGGC | – | -1.52 ± 0.36 |
| AGUUAGCAAUAUUACGUUCC | -0.837 ± 0.14 | -0.127 ± 0.18 |
| GUGGAGCAAUAUUACGUAUA | -2.7 ± 0.2 | – |
| UACCAGCAAUAUUACGGUAU | -3.15 ± 0.16 | -2.35 ± 0.18 |
| UCAUAGCAAUAUUACGACCU | -2.73 ± 0.39 | -0.81 ± 0.26 |
